Each block holds one binder with its values, some of them ahead of it.
Columns and labels:
[1] = target: T1, MICA (human, UniProt Q29983 24-383); experiment: Carterra LSA SPR
T1 chain: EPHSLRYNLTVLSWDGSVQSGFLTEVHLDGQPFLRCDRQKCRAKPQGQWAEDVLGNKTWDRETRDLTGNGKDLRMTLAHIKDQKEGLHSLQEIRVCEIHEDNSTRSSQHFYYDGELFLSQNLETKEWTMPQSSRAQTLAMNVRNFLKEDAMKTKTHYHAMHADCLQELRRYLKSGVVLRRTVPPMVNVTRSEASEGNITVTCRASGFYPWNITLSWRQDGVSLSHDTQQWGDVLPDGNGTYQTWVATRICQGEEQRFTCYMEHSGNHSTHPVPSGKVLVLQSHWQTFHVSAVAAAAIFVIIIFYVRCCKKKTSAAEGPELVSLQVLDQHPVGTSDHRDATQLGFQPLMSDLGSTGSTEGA

[2] = target: T2, MICB (human, UniProt Q29980 23-383); experiment: Carterra LSA SPR
T2 chain: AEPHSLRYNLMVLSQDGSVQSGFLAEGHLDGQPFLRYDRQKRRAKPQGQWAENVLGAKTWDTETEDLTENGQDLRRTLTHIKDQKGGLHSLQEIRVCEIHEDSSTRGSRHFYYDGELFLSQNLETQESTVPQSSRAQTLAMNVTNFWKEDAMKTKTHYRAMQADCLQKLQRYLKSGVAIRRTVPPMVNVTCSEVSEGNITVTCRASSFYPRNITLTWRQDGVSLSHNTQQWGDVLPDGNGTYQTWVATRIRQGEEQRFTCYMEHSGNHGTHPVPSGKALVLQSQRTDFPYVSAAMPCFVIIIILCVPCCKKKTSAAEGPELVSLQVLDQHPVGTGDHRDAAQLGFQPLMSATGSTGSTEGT

[3] = target: cynoMICA; experiment: Carterra LSA SPR
[4] = target: 1C8; experiment: Carterra LSA SPR
[5] = target: 1D7; experiment: Carterra LSA SPR
[6] = target: 1E1; experiment: Carterra LSA SPR
[7] = target: 1B11-2; experiment: Carterra LSA SPR
[8] = target: 1D9; experiment: Carterra LSA SPR
[9] = target: 1H7; experiment: Carterra LSA SPR
[10] = target: 1A2; experiment: Carterra LSA SPR
[11] = target: 1B6; experiment: Carterra LSA SPR
[12] = target: 1D8; experiment: Carterra LSA SPR
[13] = target: CD16 (UniProt P08637 17-208)
Sequence of CD16 (P08637 17-208): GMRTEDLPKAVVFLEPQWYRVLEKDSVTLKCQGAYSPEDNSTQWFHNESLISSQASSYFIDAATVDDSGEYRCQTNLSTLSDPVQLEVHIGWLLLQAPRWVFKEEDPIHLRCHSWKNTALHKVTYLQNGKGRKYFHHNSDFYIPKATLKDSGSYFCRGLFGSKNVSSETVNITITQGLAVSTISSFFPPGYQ

- Kd [1]: 22.9 nM
- Kd [2]: 2.27 nM
B1: D103388_1C7 [MICA/B]_H0_D103388_1C7 [MICA/B]_L0 (antibody, V domains shown)
VH: QVQLRQSGPGLGQPSQSLSITCTVFGFSLTNYGVHWVRQSPGKGLEWLGMIWNDGFTDFNAAFISRLSISKDNSKSQVFFKMNSLQPSDTAIYYCASPYFHYAMDYWGQGTSVTVSS
VL: QIVLTQSPAIMSASLGERVTMTCTASSSVSSSYLHWYQQKPGSSPKLWIYSTSNLASGVPARFSGSGSGTSYSLTISSMEAEDAATYYCHQYHRSPFTFGSGTKLEIK

- Kd [4]: 7.72 nM
- Kd [5]: 1.47 nM
- Kd [6]: 2.23 nM
- Kd [7]: 1.11 nM
- Kd [8]: 0.453 nM
- Kd [9]: 254 nM
- Kd [10]: 0.181 nM
- Kd [11]: 1.05 nM
- Kd [12]: 4.5 nM
B6: huMICB (ligand)
chain: AEPHSLRYNLMVLSQDGSVQSGFLAEGHLDGQPFLRYDRQKRRAKPQGQWAENVLGAKTWDTETEDLTENGQDLRRTLTHIKDQKGGLHSLQEIRVCEIHEDSSTRGSRHFYYDGELFLSQNLETQESTVPQSSRAQTLAMNVTNFWKEDAMKTKTHYRAMQADCLQKLQRYLKSGVAIRRTVPPMVNVTCSEVSEGNITVTCRASSFYPRNITLTWRQDGVSLSHNTQQWGDVLPDGNGTYQTWVATRIRQGEEQRFTCYMEHSGNHGTHPVPSGKALVLQSQRTDFPYVSAAMPCFVIIIILCVPCCKKKTSAAEGPELVSLQVLDQHPVGTGDHRDAAQLGFQPLMSATGSTGSTEGT

- Kd [13]: 102 nM
B8: XENP41023 (antibody)
heavy: EVQLLESGGGLVQPGGSLRLSCAVSGFSLSSYGVIWVRQAPGKGLEYVSWVSSGGSTNYASSVKGRFTISRDTSKNTVYLQMNSLRAEDTAVYFCARGATNSGTDIWGPGTLVTVSSASTKGPSVFPLAPSSKSTSGGTAALGCLVKDYFPEPVTVSWNSGALTSGVHTFPAVLQSSGLYSLSSVVTVPSSSLGTQTYICNVNHKPSDTKVDKKVEPKSCDKTHTCPPCPAPELLGGPDVFLFPPKPKDTLMISRTPEVTCVVVDVSHEDPEVKFNWYVDGVEVHNAKTKPREEEYNSTYRVVSVLTVLHQDWLNGKEYKCKVSNKALPAPIEKTISKAKGQPREPQVYTLPPSREEMTKNQVSLTCDVSGFYPSDIAVEWESDGQPENNYKTTPPVLDSDGSFFLYSKLTVDKSRWEQGDVFSCSVMHEALHNHYTQKSLSLSPGK
scFv-Fc: EVQLLESGGGLVQPGGSLRLSCAVSGFSLSSYGVIWVRQAPGKGLEYVSWVSSGGSTNYASSVKGRFTISRDTSKNTVYLQMNSLRAEDTAVYFCARGATNSGTDIWGPGTLVTVSSGKPGSGKPGSGKPGSGKPGSDIVMTQSPSSLSASVGDRVTITCRASQSINSWLSWYQQKPGKPPKLLIYGASNLASGVPSRFKGSGSGTDFTLTISSLQPEDFATYYCQNNYGIIAAGATFGGGTKVEIKEPKSSDKTHTCPPCPAPELLGGPDVFLFPPKPKDTLMISRTPEVTCVVVDVSHEDPEVKFNWYVDGVEVHNAKTKPREEQYNSTYRVVSVLTVLHQDWLNGKEYKCKVSNKALPAPIEKTISKAKGQPREPQVYTLPPSREQMTKNQVKLTCLVKGFYPSDIAVEWESNGQPENNYKTTPPVLDSDGSFFLYSKLTVDKSRWQQGNVFSCSVMHEALHNHYTQKSLSLSPGK
light: DIVMTQSPSSLSASVGDRVTITCRASQSINSWLSWYQQKPGKPPKLLIYGASNLASGVPSRFKGSGSGTDFTLTISSLQPEDFATYYCQNNYGIIAAGATFGGGTKVEIKRTVAAPSVFIFPPSDEQLKSGTASVVCLLNNFYPREAKVQWKVDNALQSGNSQESVTEQDSKDSTYSLSSTLTLSKADYEKHKVYACEVTHQGLSSPVTKSFNRGEC

- Kd [13]: 120 nM
B9: XENP41024 (antibody)
heavy: EVQLLESGGGLVQPGGSLRLSCAVSGFSLSSYGVIWVRQAPGKGLEYVSWVSSGGSTNYASSVKGRFTISRDTSKNTVYLQMNSLRAEDTAVYFCARGATNSGTDIWGPGTLVTVSSASTKGPSVFPLAPSSKSTSGGTAALGCLVKDYFPEPVTVSWNSGALTSGVHTFPAVLQSSGLYSLSSVVTVPSSSLGTQTYICNVNHKPSDTKVDKKVEPKSCDKTHTCPPCPAPELLGGPSVFLFPPKPKDTLMISRTPEVTCVVVDVSHEDPEVKFNWYVDGVEVHNAKTKPREEEYNSTYRVVSVLTVLHQDWLNGKEYKCKVSNKALPAPEEKTISKAKGQPREPQVYTLPPSREEMTKNQVSLTCDVSGFYPSDIAVEWESDGQPENNYKTTPPVLDSDGSFFLYSKLTVDKSRWEQGDVFSCSVMHEALHNHYTQKSLSLSPGK
scFv-Fc: EVQLLESGGGLVQPGGSLRLSCAVSGFSLSSYGVIWVRQAPGKGLEYVSWVSSGGSTNYASSVKGRFTISRDTSKNTVYLQMNSLRAEDTAVYFCARGATNSGTDIWGPGTLVTVSSGKPGSGKPGSGKPGSGKPGSDIVMTQSPSSLSASVGDRVTITCRASQSINSWLSWYQQKPGKPPKLLIYGASNLASGVPSRFKGSGSGTDFTLTISSLQPEDFATYYCQNNYGIIAAGATFGGGTKVEIKEPKSSDKTHTCPPCPAPELLGGPSVFLFPPKPKDTLMISRTPEVTCVVVDVSHEDPEVKFNWYVDGVEVHNAKTKPREEQYNSTYRVVSVLTVLHQDWLNGKEYKCKVSNKALPAPEEKTISKAKGQPREPQVYTLPPSREQMTKNQVKLTCLVKGFYPSDIAVEWESNGQPENNYKTTPPVLDSDGSFFLYSKLTVDKSRWQQGNVFSCSVMHEALHNHYTQKSLSLSPGK
light: DIVMTQSPSSLSASVGDRVTITCRASQSINSWLSWYQQKPGKPPKLLIYGASNLASGVPSRFKGSGSGTDFTLTISSLQPEDFATYYCQNNYGIIAAGATFGGGTKVEIKRTVAAPSVFIFPPSDEQLKSGTASVVCLLNNFYPREAKVQWKVDNALQSGNSQESVTEQDSKDSTYSLSSTLTLSKADYEKHKVYACEVTHQGLSSPVTKSFNRGEC

Further lines, the binder ahead of its results:

B2: 1C7 (antibody, V domains shown)
VH: QVQLRQSGPGLGQPSQSLSITCTVFGFSLTNYGVHWVRQSPGKGLEWLGMIWNDGFTDFNAAFISRLSISKDNSKSQVFFKMNSLQPSDTAIYYCASPYFHYAMDYWGQGTSVTVSS
VL: QIVLTQSPAIMSASLGERVTMTCTASSSVSSSYLHWYQQKPGSSPKLWIYSTSNLASGVPARFSGSGSGTSYSLTISSMEAEDAATYYCHQYHRSPFTFGSGTKLEIK
- Kd [3]: 23.8 nM

B3: D99136_2C11 [MICA/B]_H0_D99136_2C11 [MICA/B]_L0 (antibody, V domains shown)
VH: DVQLQESGPGLVKPSQSLSLTCSVTGYSITSGYNWDWIRHSPGNKLEWMGYISYDGSTNYNPSLKNRISITRDTSKNQFFLKLNSVTTEDTATYYCASSYYRYFDYWGQGTTLTVSS
VL: DVQMTQTTSSLSASLGDRVTISCSASQGISNYLNWFQQKPDGTVKLLIYYTSSLHSGVPSRFSGSGSGTDYSLTISNLEPEDIATYYCQQYTKLPWTFGGGTELEIK
- Kd [1]: 17.8 nM
- Kd [2]: 2.59 nM

B4: 2E5 (antibody, V domains shown)
VH: EVKLVESGGGLVQPGGSLKLSCATSGFTFSDYYMFWVRQTPEKRLEWVAYISEGGGSTYYPDTIKGRFTISRDNAKNTLYLQMSRLRSEDTAMYYCVRQRGAYNRYDDGRGFAYWGQGTLVTVSA
VL: DVLMTQTPLSLPVSLGDQASISCRSSQSIVHSNGNTYLEWYLQKPGQSPKLLIYKVSNRFSGVPDRLSGSGSGTDFTLKISRGEAEDLGVYYCFQGSHVPWTFGGGTKLEIK
- Kd [1]: 0.599 nM
- Kd [2]: 0.807 nM

B5: 2F7 (antibody, V domains shown)
VH: QVHLKQSGAELVRPGASVKLSCKASGYTFTDYYIDWMNQRPGQGLEWIARIYPGSGNSYYNEKFKGKATLTAEKSASTAHMQLSSLTSEDSAVYFCAREGPTGVAPHWYFDVWGTGTTVTVSS
VL: DIVMSQSPSSLSSYLGDRVTISCRASQDIGNYLNWYQQKPDGTVKLLIYSTSRLHSGVPSRFSGSGSGTDYSLTISNLEQEDVATYFCQQGNTLPWTFGGGTKLEIK
- Kd [1]: 42.4 nM
- Kd [2]: 9.77 nM

B7: 2E12 (antibody, V domains shown)
VH: QVQLQQSGAELVRPGTSVKVSCKASGYAFTNYLIEWVKQRPGQGLEWIGGINPGSGSTNYNEKFKGKATLTADKSSSTAYMQLSTLTFDDSAVYFCARLGGNYVDYWGQGTTLTVSS
VL: DIQMTQSPASLSASVGETVTITCRASGNIHNYLAWYQQKQGKSPQLLVYNAKTLADGVPSRFSGSGSGTQYSLKINSLQPEDFGSYYCQHFWSTPRTFGGGTKLEIK
- Kd [1]: 16.7 nM
- Kd [2]: 4.68 nM

B10: D94837_1E11_1 [MICA/B]_H0_D94837_1E11_1 [MICA/B]_L0 (antibody, V domains shown)
VH: EIQLQQSGPELVKPGASVKVSCKASGYAFTSYNMYWVKQSHGKSLEWIGYIDPYNGGTIYNQKFKGKATLTVDKSSSTAYMLLNSLTSEDSAVYYCARVGDAYPFAYWGQGTLVTVSA
VL: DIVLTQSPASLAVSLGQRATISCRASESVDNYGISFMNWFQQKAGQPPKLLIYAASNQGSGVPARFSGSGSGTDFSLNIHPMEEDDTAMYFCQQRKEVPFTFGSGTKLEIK
- Kd [1]: 40.3 nM
- Kd [2]: 52.8 nM

B11: 1E11-1 (antibody, V domains shown)
VH: EIQLQQSGPELVKPGASVKVSCKASGYAFTSYNMYWVKQSHGKSLEWIGYIDPYNGGTIYNQKFKGKATLTVDKSSSTAYMLLNSLTSEDSAVYYCARVGDAYPFAYWGQGTLVTVSA
VL: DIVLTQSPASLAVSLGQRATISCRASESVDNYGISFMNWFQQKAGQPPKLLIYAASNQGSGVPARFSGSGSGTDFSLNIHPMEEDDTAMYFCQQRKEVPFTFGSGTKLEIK
- Kd [3]: 19.6 nM
